Results: patent US9611295B2, “Treatment of IL-17 mediated disease by blocking SEFIR-SEFIR interactions” (THE CLEVELAND CLINIC FOUNDATION, priority 2011, dated 2017)

Molecular target: T1, Act1-IL-17RA interaction (Homo sapiens, UniProt Q96F46)
T1 construct: expressed in transfected cells; host or cells: HeLa
T1 sequence (Q96F46 33-866): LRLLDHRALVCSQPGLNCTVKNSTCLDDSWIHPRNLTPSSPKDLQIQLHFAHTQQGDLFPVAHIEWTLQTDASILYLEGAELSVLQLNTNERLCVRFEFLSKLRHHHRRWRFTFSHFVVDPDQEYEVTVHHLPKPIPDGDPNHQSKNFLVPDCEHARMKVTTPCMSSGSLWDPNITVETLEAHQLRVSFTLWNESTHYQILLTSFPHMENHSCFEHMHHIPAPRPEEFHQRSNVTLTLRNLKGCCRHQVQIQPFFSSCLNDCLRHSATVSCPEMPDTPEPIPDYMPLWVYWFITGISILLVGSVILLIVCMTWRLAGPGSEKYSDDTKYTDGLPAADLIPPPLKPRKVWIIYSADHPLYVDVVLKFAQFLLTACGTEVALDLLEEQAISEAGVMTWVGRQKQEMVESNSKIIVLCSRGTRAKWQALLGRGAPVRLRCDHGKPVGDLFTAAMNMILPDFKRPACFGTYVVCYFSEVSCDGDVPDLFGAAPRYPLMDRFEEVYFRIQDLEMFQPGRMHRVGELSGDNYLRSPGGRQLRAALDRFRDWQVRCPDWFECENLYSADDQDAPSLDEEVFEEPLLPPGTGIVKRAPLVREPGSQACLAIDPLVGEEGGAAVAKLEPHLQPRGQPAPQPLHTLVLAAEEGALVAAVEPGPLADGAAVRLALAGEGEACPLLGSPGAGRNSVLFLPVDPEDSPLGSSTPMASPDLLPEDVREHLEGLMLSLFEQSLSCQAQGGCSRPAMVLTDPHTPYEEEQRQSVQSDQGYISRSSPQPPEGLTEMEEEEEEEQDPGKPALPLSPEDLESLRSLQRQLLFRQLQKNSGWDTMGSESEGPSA
Experiment: Co-immunoprecipitation of Act1 and IL-17RA in transfected HeLa cells
Assay type: cell-based, mouse Act1, human IL-17RA
Details: peptides 200 μM, 24 hours
Description: FIG. 4 provides data showing that a cell-permeable CC′ loop decoy peptide disrupts the interaction between Act1 and IL-17RA and inhibits IL-17R and IL-25R signaling. FIG. 4A provides sequences of Antennapedia homeodomain (Antp) (SEQ ID NO: 11)and decoy peptides (SEQ ID NOS 23-25 and 17, respectively, in order of appearance) with the Antp sequence underlined. FIG. 4B provides flow cytometry results based on experiments in which MEFs expressing IL-17RB were incubated for 2 or 24 hours with the indicated FITC-tagged peptides (200 μM) and were then analyzed by flow cytometry. […] The percentages of FITC-positive cells in the treated samples are shown. […] FIG. 4D provides Western blot results of experiments in which MEFs expressing IL-17RB were incubated with the indicated peptides (200 μM) for 24 hours after which they were treated with IL-17 or IL-25 and then analyzed by Western blotting with the indicated antibodies. […] The abundances of Cxcl1 and Il13 mRNAs were then measured by real-time RT-PCR. […]
Decoy peptides are based on surface-exposed regions of the primary sequence of a protein to mimic a putative interaction interface. […] These decoy peptides were also tagged at their C-termini with fluorescein isothiocyanate (FITC) to enable their cell-penetrating efficiency to be evaluated by flow cytometric sanalysis. […]

Question: Which “inhibition of the Act1-IL-17RA interaction (co-IP)” value does the source give for “DRQIKIWFQNRRMKWKKLDEDEHGLHTKY [CC′ loop decoy peptide]” here?
Answer: more efficiently inhibited
